The text below walks through data of patent US6015560, “Antibody recognizing endothelial cell ligand for leukocyte CR3” (The Rockfeller University, dated 2000).

Bounds are passed on as bounds.

Assay [1] deals with T1, integrin complement receptor 3 (CR3) on human leukocytes (human, UniProt P11215). The assay can be described thus: cell-based or functional assay.
The target in assay [2] is T1, integrin complement receptor 3 (CR3) on …. Kind of assay: macrophages spread on peptide-coated wells; residual CD11b/CD18 detected with C3bi-coated erythrocytes.

B1: FHA peptide B (peptide)
peptide: RQDFFTPGSVVVRAQGNVTVGRGDPHQGVLAQGDIIMDAKGGTLL
Take B1: the “inhibition of adherence of human neutrophils to cultured endothelial cells” value (“inhibition” for short) in assay [1] came to 29%.

B2: FHA peptide E (peptide)
peptide: AKKLFLNGTLRAVNDNNETMSGRQIDVVDGRPQITDAVTGEARKD
For the molecule B2, the “inhibition” value in assay [1] was below 15%.

B3: FHA peptide D (peptide)
peptide: LEHSTIESKISQSVLAAKGDKGKPAVSVKVAKKLFLNGTLRAVND
For the molecule B3, in assay [1], the “inhibition” value was below 15%.

B4: FHA peptide Cb (peptide)
peptide: RADPHQGVLAQGDIIMDAKG
Take B4: the binding result in assay [2] is “no binding (tested: wells coated with 0.5 mM peptide)”.

B5: FHA peptide F (peptide)
peptide: RPQITDAVTGEARKDESVVSDAALVADGGPIVVEAGELVSHAGGI
Regarding B5, the “inhibition” value in assay [1] was below 15%.

B6: FHA peptide C (peptide)
peptide: RGDPHQGVLAQGDIIMDAKGGTLLLRNDALTENGTVTISADSAVL
For B6, in assay [1], the “inhibition” value was 62%.

B7: FHA peptide G (peptide)
peptide: IVVEAGELVSHAGGIGNGRNKENGASVTVRTTGNLVNKGYISAGKQGVLEVGGAL
For B7, the “inhibition” value in assay [1] was below 15%.

B8: FHA peptide Cd (peptide)
peptide: GTLLLRNDALTENGTVTISA
B8: in assay [2], the binding result is listed as “no binding (tested: wells coated with 0.5 mM peptide)”.

B9: FHA peptide A (peptide)
peptide: IGALKAGAVEAASPRRAARRALRQDFFTPGSVVVRAQGNYTVGRGD
With B9, in assay [1], the “inhibition” value was below 15%.

B10: FHA peptide Cc (peptide)
peptide: AADPHQGVLAQGDIIMDAKG
For B10, in assay [2], the binding result is listed as “no binding (tested: wells coated with 0.5 mM peptide)”.
